Experiments:
[1] = target: T1, recombinant biotinylated CD20 (human) (human, UniProt P11836 1-297, limits assumed, biotinylated (site not stated)); test: ELISA, antibody coated on the plate, biotinylated CD20 titrated, streptavidin-HRP detection, OD 450 nm
T1 construct: also called hu CD20; B-lymphocyte antigen CD20
T1 sequence: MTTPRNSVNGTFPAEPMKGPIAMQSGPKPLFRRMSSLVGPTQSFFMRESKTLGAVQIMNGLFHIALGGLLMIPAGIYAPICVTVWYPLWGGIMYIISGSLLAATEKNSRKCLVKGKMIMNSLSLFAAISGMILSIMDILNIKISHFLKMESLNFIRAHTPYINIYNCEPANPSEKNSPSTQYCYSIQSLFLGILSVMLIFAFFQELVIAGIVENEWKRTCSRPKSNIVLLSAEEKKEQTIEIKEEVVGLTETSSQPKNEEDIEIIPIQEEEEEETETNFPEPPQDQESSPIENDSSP
Procedure: (§1) The interaction of the unmodified and of conjugated anti-CD20 antibodies with CD20 were measured by ELISA assay. […] Plates were washed four times with 100 μl of PBS-0.02% Tween20. and blocked with 25 μl of PBS-0.02% Tween20-1% BSA at 37° C. with shaking at 600 RPM, for 1 h. Plates were then washed four times with 100 μl of PBS-0.02% Tween20. 25 μl of recombinant biotinylated CD20 were added in seven-fold serial dilutions starting at 18 nM down to 10 pM into PBS-0.02% Tween20-0.1% BSA and incubated at 37° C. during 2 h. Plates were then washed four times with 100 μl of PBS-0.02% Tween20. 25 ul of Streptavidin-Horseradish peroxidase (#RABHRP3, Merck, Buchs, Switzerland) diluted at 1:500 into PBS-0.02% Tween20-0.1% BSA were added to each well and incubated at room temperature for 30 min. Plates were then washed four times with 100 μl of PBS-0.02% Tween20. Fifty microliters of TMB substrate reagent (#CL07, Merck, Buchs, Switzerland) were added to each well and incubated at 37° C. during 5min After 5 min at 37° C., Horseradish peroxidase reaction is stopped by adding 50 μl/well of 0.5M H₂SO₄ stop solution. ELISA signal is then measured at 450 nm on an ENSPIRE® plate reader from Perkin Elmer (Schwerzenbach, Switzerland).

[2] = target: T1, recombinant biotinylated CD20 (human); test: ELISA, antibody coated on plate, biotinylated recombinant CD20 titrated, streptavidin-HRP detection; mean EC50
Procedure: as §1

[3] = target: T2, Recombinant Human Fc gamma RI/CD64 Protein (human, UniProt P12314 16-288); test: ELISA, antibody coated at 2.5 ug/ml, soluble Fc gamma receptor titrated, HRP detection; mean EC50
T2 construct: Bought recombinant protein; also called hu FcγRI (CD64)
Procedure: (§2) To analyze Fc Receptor gamma binding test molecules were diluted to 2.5 ug/ml in PBS and plates were coated overnight at 4° C. The next day the assay plates were washed four times with 100 ul of wash buffer: PBS+0.02% Tween 20 and blocked with PBS+1% BSA, for one hour at 37° C., with shaking at 600 RPM. The blocked plates were then washed four times with 100 ul wash buffer. Diluted FcRgamma (Reagents listed, below) was freshly diluted in wash buffer. Plates were then incubated with 25 ul of diluted Fc for two hours with shaking at 600 RPMs, then washed with 100 ul wash buffer, four times. The wells were then incubated with 25 ul of either 1:500 diluted streptavidin-Horseradish peroxidase (HRP) for detection of human FcgR or 1:500 diluted Anti-HIS tag antibody-HRP in wash buffer. The HPR detection molecules were incubated in the wells at room temperature for one hour with shaking at 600 RPMs. Plate wells were washed with 100 ul of wash buffer, four times. Plates were detected using the chromogenic HRP substrate 3,3′,5,5;-tetramethylbenzidine (TMB). Samples were read using a spectrophotometer plate reader with OD set to 450 nm. Reagents: Recombinant Mouse Fc gamma RI/CD64 Protein, CF R&D Systems #2074-FC-050; Recombinant Human Fc gamma RI/CD64 Protein, CF R&D Systems #1257-FC-050; Recombinant Mouse Fc gamma RIII/CD16 Protein, CF R&D Systems #1960-FC-050; Recombinant Human Fc gamma RIIA/CD32a (H167) Protein, CF R&D Systems #9595-CD-050; Recombinant Mouse Fc gamma R4/CD16-2 Protein, CF R&D Systems #1974-CD-050; Recombinant Human Fc gamma RIIIA/CD16a Protein, CF R&D Systems #4325-FC-050; Recombinant Human Fc gamma RIIB/CD32b Avi-tag Protein, CF R&D Systems #AVI1875-050; Recombinant Mouse Fc gamma RIIB/CD32b Protein, CF R&D Systems #1460-CD-050; His Tag Horseradish Peroxidase-conjugated Antibody, R&D Systems #MAB050H; Streptavidin-HRP, Sigma #RABHRP3-600 µL.

[4] = target: T3, Recombinant Mouse Fc gamma RI/CD64 Protein (mouse, UniProt P26151 25-297); test: as above
T3 construct: Bought recombinant protein; also called mu FcγRI (CD64); murine CD64
T3 sequence (looked up): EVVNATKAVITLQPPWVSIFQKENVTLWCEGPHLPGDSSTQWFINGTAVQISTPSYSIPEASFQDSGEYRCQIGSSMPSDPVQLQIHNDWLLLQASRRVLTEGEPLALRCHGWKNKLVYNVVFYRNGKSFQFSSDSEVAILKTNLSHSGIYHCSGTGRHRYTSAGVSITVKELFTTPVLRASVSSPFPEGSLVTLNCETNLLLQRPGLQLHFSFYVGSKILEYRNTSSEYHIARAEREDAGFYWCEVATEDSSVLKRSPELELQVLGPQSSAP
Procedure: as §2

[5] = target: T4, Recombinant Human Fc gamma RIIA/CD32a (H167) Protein (human, UniProt P12318 36-218); test: as above
T4 construct: Bought recombinant protein; H167 variant as printed; also called hu FcγRIIa (CD32a); human CD32a
T4 sequence (looked up): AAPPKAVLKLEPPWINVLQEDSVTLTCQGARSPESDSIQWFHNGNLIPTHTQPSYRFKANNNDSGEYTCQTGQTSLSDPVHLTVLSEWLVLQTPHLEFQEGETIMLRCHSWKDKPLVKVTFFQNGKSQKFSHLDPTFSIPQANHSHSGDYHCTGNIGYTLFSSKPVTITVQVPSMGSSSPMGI
Procedure: as §2

[6] = target: T5, Recombinant Human Fc gamma RIIB/CD32b Avi-tag Protein (human, UniProt P31994 46-217); test: as above
T5 construct: Bought recombinant protein with Avi-tag; also called hu FcγRIIb (CD32b); human CD32b
T5 sequence (looked up): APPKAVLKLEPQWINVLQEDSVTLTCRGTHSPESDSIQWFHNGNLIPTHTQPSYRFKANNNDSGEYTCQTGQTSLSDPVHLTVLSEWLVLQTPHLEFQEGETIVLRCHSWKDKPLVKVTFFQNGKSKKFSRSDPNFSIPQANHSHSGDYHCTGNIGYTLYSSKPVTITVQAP
Procedure: as §2

[7] = target: T6, Recombinant Human Fc gamma RIIIA/CD16a Protein (human, UniProt P08637 17-208); test: as above
T6 construct: Bought recombinant protein; also called hu FcγRIII (CD16a); huFcgRIII
Procedure: as §2

[8] = target: T7, Recombinant Mouse Fc gamma RIII/CD16 Protein (mouse, UniProt P08508 31-215); test: as above
T7 construct: Bought recombinant protein; also called mu FcγRIII (CD16); murine CD16
T7 sequence (looked up): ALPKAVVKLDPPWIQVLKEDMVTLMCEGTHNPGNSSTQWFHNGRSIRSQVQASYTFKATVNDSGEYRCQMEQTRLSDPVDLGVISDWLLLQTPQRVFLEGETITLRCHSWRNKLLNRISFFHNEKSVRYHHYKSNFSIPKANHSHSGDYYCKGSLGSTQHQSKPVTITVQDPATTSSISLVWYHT
Procedure: as §2

T6 sequence (P08637 17-208 limits assumed): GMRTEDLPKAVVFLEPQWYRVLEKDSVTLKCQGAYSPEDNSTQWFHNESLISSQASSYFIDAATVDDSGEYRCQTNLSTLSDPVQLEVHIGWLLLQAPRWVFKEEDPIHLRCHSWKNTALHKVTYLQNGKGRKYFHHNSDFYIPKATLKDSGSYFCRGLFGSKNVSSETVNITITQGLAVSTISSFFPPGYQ
T2 sequence (P12314 16-288 limits assumed): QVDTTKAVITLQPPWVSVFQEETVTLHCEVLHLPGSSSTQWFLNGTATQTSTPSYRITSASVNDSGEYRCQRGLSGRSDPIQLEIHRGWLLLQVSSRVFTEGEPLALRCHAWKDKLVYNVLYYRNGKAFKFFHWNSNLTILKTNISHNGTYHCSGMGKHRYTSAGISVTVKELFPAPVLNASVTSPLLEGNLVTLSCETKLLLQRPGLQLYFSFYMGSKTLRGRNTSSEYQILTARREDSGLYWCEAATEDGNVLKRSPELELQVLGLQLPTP

B1: biosimilar Rituximab (unconjugated parent anti-CD20 antibody) (antibody, human IgG1, kappa)
heavy: not shown
light: QIVLSQSPAILSASPGEKVTMTCRASSSVSYIHWFQQKPGSSPKPWIYATSNLASGVPVRFSGSGSGTSYSLTISRVEAEDAATYYCQQWTSNPPTFGGGTKLEIKRTVAAPSVFIFPPSDEQLKSGTASVVCLLNNFYPREAKVQWKVDNALQSGNSQESVTEQDSKDSTYSLSSTLTLSKADYEKHKVYACEVTHQGLSSPVTKSFNRGEC
notes: The antibody tested is a biosimilar of rituximab; also called aCD20 AB; parent antibody
With B1 the “EC50 (read off the curve)” value [1] was ~0.04 nM, the EC50 [2] was 0.08 nM and the EC50 [3] was 0.23 nM. It also gave an EC50 [4] of 35 nM, an EC50 [5] of 740 nM and an EC50 [6] of 880 nM. The EC50 [7] was 185 nM and the EC50 [8] was 133 nM.

— patent US20230201365A1 (BRIGHT PEAK THERAPEUTICS, published 2023)
